# Data taken from article PMC9318220.
# Molecular target: conSOSL.UFO.664 trimer with a C-terminal 8x His-tag (SUFO.664-His) (HIV-1 (consensus S))
# Assay: SEC + native gel or EMSA; SEC on HiPrep 26/60 Sephacryl S-300 HR after lectin affinity; eluted fractions analysed by Native-PAGE with silver stain and Western blot
substance,measurement,value
conSOSL.UFO.664 trimer with a C-terminal 8x His-tag (SUFO.664-His),stoichiometry N,3
